Measurements published in paper PMC9864903, “Imaging of the Glucose-Dependent Insulinotropic Polypeptide Receptor Using a Novel Radiolabeled Peptide Rationally Designed Based on Endogenous GIP and Synthetic Exendin-4 Sequences” (Pharmaceuticals, 2022).
pIC50: −log10 of the molar value. “Also recorded” adds a separate entry of the source.

Key:
[1] = pharmacokinetics in rats after subcutaneous administration; format: in vivo; details: rat
Description: The potency of the peptide conjugate in terms of EC50 was studied using C803-GIP and C803-GIP loaded with a stable isotope of gallium (Ga-C803-GIP) in HEK293 cells transfected with the GIPR from human, monkey (NHP), and rat species. In addition, the cross-reactivity was studied in HEK293 cells transfected with the GLP1-R and GCGR. […] In contrast, the EC50 for the rat GIPR was one order of magnitude poorer. […] The pharmacokinetic properties were investigated in vivo in rats. […] The average plasma concentration calculated to the infinity (AUCinf) was 1370 h*ng/mL.
Figure 1 Plasma concentration of Ga-C803-GIP measured at 3, 6, 9.6, 19.8, 30, 60, 120, and 240 min post subcutaneous administration in rats (n = 3). The error bars are not seen due to the low SD values.

[2] = chemical stability of Ga-C803-GIP at ambient temperature and pH 4.5; format: physicochemical; details: for at least one week at ambient temperature and pH 4.5
Description: C803-GIP has a sequence partially similar to that of hGIP(1-30), wherein L-Alanine at position 2 was exchanged to D-Alanine, Methionine at position 14 was exchanged to Leucine, Aspartic acid at position 21 was exchanged to Glutamic acid, Valine at position 23 was exchanged to Isoleucine, Asparagine at position 24 was exchanged to Glutamic acid, Leucine at position 27 was exchanged to Lysine, and both Glutamine at position 29 and Lysine at position 30 were exchanged to Glycine. The sequence was amended with Histidine (31), Proline (32), and seven more residues corresponding to those found in exendin-4 (Serine(33)-Glycine(34)-Alanine(35)-Proline(36)-Proline(37)-Proline(38)-Serine(39)). The peptide sequence was conjugated via terminal Serine(39) to a DOTA chelator moiety functionalized with a vinyl sulfone linker and cysteine amide (Table 1). C803-GIP was loaded with stable isotopes of gallium to yield Ga-C803-GIP for the subsequent investigation of the stability and biological activity. Ga-C803-GIP was stable with a purity of over 95% for at least one week at ambient temperature and pH 4.5.

GIPR = details: affinity for the GIPR; cited from earlier work
Description: This effect may be due to the exchange of Aib(2) to A(2), L(10) to Y(10), R(16) to K(16), E(20) to Q(20), L(27) to K(27), K(31) to H(31), and the addition of the C-terminal tail ((32-39); […]). [^68Ga]Ga-C803-GIP was furthermore evaluated for its affinity, internalization, and binding specificity towards the GIPR.

[3] = dynamic PET/CT organ distribution in pig; format: in vivo; details: infusion of GIP(1-42) 20 pmol/kg/min
Description: An anesthetized pig (25 kg) was positioned to include the abdomen with pancreas in the center of the 25 cm axial field of view of a Discovery MI PET/CT scanner (GE Healthcare, MI, USA) by assistance of a low-dose CT scout view (140 kV, 10 mAs). The details of the animal handling, preparation, and anesthesia have been previously described.
Attenuation correction was acquired by a 140 kV, 10–80 mA CT examination. The administration of [^68Ga]Ga-C803-GIP (17.3 MBq, corresponding to approximately 2.5 μg peptide or 0.10 μg/kg) was made upon the start of the baseline dynamic scan lasting for 90 min (30 frames; […]). The dynamic scan was followed by a static scan over the brain from 90–120 min post administration. A second PET investigation was performed after an additional 2 h to allow the radioactivity from the first scan to fade from the circulation by decay and excretion.
The GIP(1-42) infusion was continued until the end of the PET scan. Finally, after the last PET scan, a contrast-enhanced CT scan was performed to assist delineation of the tissues, e.g., the pancreas.
Segmentation of the tissues of interest (descending aorta, pancreas, spleen, kidney, liver, and muscle) was performed in PMOD (PMOD Technologies), and time–activity curves were expressed as SUV as detailed above.

**Q.** Which results are given for `CC[C@H](C)[C@H](NC(=O)[C@H](CO)NC(=O)[C@H](Cc1ccc(O)cc1)NC(=O)[C@H](CC(=O)O)NC(=O)[C@H](CO)NC(=O)[C@@H](NC(=O)[C@H](Cc1ccccc1)NC(=O)[C@@H](NC(=O)CNC(=O)[C@H](CCC(=O)O)NC(=O)[C@@H](C)NC(=O)[C@@H](N)Cc1ccc(O)cc1)[C@@H](C)O)[C@@H](C)CC)C(=O)N[C@@H](C)C(=O)N[C@@H](CC(C)C)C(=O)N[C@@H](CC(=O)O)C(=O)N[C@@H](CCCCN)C(=O)N[C@H](C(=O)N[C@@H](Cc1c[nH]cn1)C(=O)N[C@@H](CCC(N)=O)C(=O)N[C@@H](CCC(N)=O)C(=O)N[C@@H](CCC(=O)O)C(=O)N[C@@H](Cc1ccccc1)C(=O)N[C@H](C(=O)N[C@@H](CCC(=O)O)C(=O)N[C@@H](Cc1c[nH]c2ccccc12)C(=O)N[C@@H](CC(C)C)C(=O)N[C@@H](CCCCN)C(=O)N[C@@H](C)C(=O)NCC(=O)NCC(=O)N[C@@H](Cc1c[nH]cn1)C(=O)N1CCC[C@H]1C(=O)N[C@@H](CO)C(=O)NCC(=O)N[C@@H](C)C(=O)N1CCC[C@H]1C(=O)N1CCC[C@H]1C(=O)N1CCC[C@H]1C(=O)N[C@@H](CO)C(=O)N[C@@H](CSCCS(=O)(=O)CCN1CCN(CC(=O)O)CCN(CC(=O)O)CCN(CC(=O)O)CC1)C(N)=O)[C@@H](C)CC)[C@@H](C)CC` [Ga-C803-GIP]?
**A.** half-life ([1]; plasma, sc, 1 mg/kg, n = 3): 22.8 min; AUCinf ([1]; 1 mg/kg, n = 3): 1370 ng·h/mL; plasma clearance (CL) ([1]; 1 mg/kg, n = 3): 12.2 mL/min/kg; plasma concentration at the 240 min time point ([1]; n = 3, 240 min post administration): below the limit of detection; purity on storage (stability) [2]: over 95%

**Q.** With [Lys37(111In-DTPA)]N-acetyl-GIP1-42 as the molecule, how does the pIC50 (GIPR) read?
**A.** Its pIC50 is 5.32.

**Q.** With “YAEGTFISDYSIAMDKIHQQDFVNWLLAQKGKKNDWKHNITQ [GIP(1-42), reference compound]” as the molecule, how does the “effect of GIP(1-42) on uptake of [68Ga]Ga-C803-GIP in tissues” value [3] read?
**A.** Its value is “did not reduce the uptake; also recorded: did not affect the uptake pattern”.
